Results reported in patent US20220144953A1 (published 2022).

Biological target: Parent
Assay: antigen titration binding curve (Norm. RFU)

B1: Mouse (receptor)
chain: FKVTTPYSLYVCPEGQNATLTCRILGPVSKGHDVTIYKTWYLSSRGEVQMCKEHRPIRNFTLQHLQHHGSHLKANASHDQPQKHGLELASDHHGNFSITLRNVTPRDSGLYCCLVIELKNHHPEQRFYGSMELQVQAGKGSGSTCMASNEQDSDSITAA
**Q.** With B1 as the binder, how does the Kd read?
**A.** 165 nM
